{"source": "paper PMC13169712", "about": "“Structural determinants of peanut-induced anaphylaxis” (The Journal of allergy and clinical immunology, 2025)", "binders": {"B1": {"name": "38B7 human IgE mAb (antibody, V domains shown)", "VH": "QVQLVESGGGVVQPGRSLRLSCVGSGFTFRRDAKYWVRQAPGKGLEWVAAISHDGGEEDYAESVKGRFTISRDNSRETVYLEMNSLRPEDTAVYYCATTRSGWYFDYWGQGALVTVSS", "VL": "EIVLTQSPATLSLSPGARATLSCRASQSVDTYLAWYQQRRGQSPRLLIYDASKRATGIPARFSGSGSGTDFTLTISSLEPEDFAVYYCQQRNNWRTWTFGQGTKVEIN", "notes": "variable region as in the heavy chain of m5; human IgE heavy chain constant region; as the light chain of m5; In the SPR some pairs used antibody captured on a Protein A/G chip; also called IgE mAb 38B7; 38B7 IgE"}, "B2": {"name": "16A8 human IgE mAb (antibody, V domains shown)", "VH": "QVQLVQSGPDVRKPGATVKVSCQTSGYRFTDYEMNWVRQAPGQGLEWIGLINPHSGDTAYAQKFQGRVTMTSDTSDSTVYLELSGLTPDDTAVYYCARSQGTFEVYYFVSWGQGSLVTVSS", "VL": "SYVLTQPPSMSVAPGTTASIPCGANNIAKKRVHWYRQKPGQAPVVVVSDDEDRSSVIPDRFSGSKSGDTATLTISRVEAGDEGDYYCQVWDSKTDHVVFGGGTKVTVL", "notes": "variable region as in the heavy chain of m1; human IgE heavy chain constant region; as the light chain of m1; In the SPR some pairs used antibody captured on a Protein A/G chip; also called 16A8 antibody"}}, "details_in_all_cases": "both partners purified", "key": {"recombinant Ara h 2.01": {"biological_target": "T1, recombinant Ara h 2.01 (Arachis hypogaea, Ara h 2.01, UniProt Q6PSU2;PDB, strain)", "T1 construct": "also called rArah2.01; source: HEK cell-produced, recombinant", "test": "SPR; Carterra LSA; antibody as ligand, allergen or peptide as analyte; how the antibody was held for these pairs is not told"}, "recombinant Ara h 2.02 [1]": {"biological_target": "T2, recombinant Ara h 2.02 (Arachis hypogaea, Ara h 2.02, UniProt Q6PSU2, strain)", "T2 construct": "also called rArah2.02; source: recombinant", "test": "SPR; Carterra LSA; antibody as ligand, allergen or peptide as analyte; how the antibody was held for these pairs is not told"}, "recombinant Ara h 6": {"biological_target": "T3, recombinant Ara h 6 (Arachis hypogaea, UniProt Q647G9)", "T3 construct": "Ara h 6, Arachis hypogaea; May be the same construct as Ara h 6c; also called rAra h 6; rArah6; source: recombinant", "test": "SPR; Carterra LSA; antibodies noncovalently bound to PAGHC30M (Protein A/G) sensor chips; analyte at 0.16, 0.8, 4, 20, 100 and 500 nM in HBS-TE, 0.05% BSA; 5 min association, 15 min dissociation"}, "recombinant Ara h 2.02 [2]": {"biological_target": "T2, recombinant Ara h 2.02", "test": "SPR; Carterra LSA; antibodies noncovalently bound to PAGHC30M (Protein A/G) sensor chips; analyte at 0.16, 0.8, 4, 20, 100 and 500 nM in HBS-TE, 0.05% BSA; 5 min association, 15 min dissociation"}, "[3]": {"biological_target": "T4, rAra h 2 with the DPYSPS-containing loop deleted (Arachis hypogaea, Ara h 2.01 background, UniProt Q6PSU2;PDB, point mutant)", "T4 construct": "also called rAra h 2_loopdel; rArah2_loopdel", "test": "SPR; Carterra LSA; antibodies noncovalently bound to PAGHC30M (Protein A/G) sensor chips; analyte at 0.16, 0.8, 4, 20, 100 and 500 nM in HBS-TE, 0.05% BSA; 5 min association, 15 min dissociation"}}, "data": [{"binder": "B1", "values": [{"measurement": "Kd", "setting": "recombinant Ara h 2.01", "value": 30000, "unit": "pM"}, {"measurement": "koff", "setting": "recombinant Ara h 2.01", "value": 0.000459, "unit": "s⁻¹"}, {"measurement": "kon", "setting": "recombinant Ara h 2.01", "value": 15500, "unit": "M⁻¹ s⁻¹"}, {"measurement": "Kd", "setting": "recombinant Ara h 2.02 [1]", "value": 3500, "unit": "pM"}, {"measurement": "koff", "setting": "recombinant Ara h 2.02 [1]", "value": 0.000474, "unit": "s⁻¹"}, {"measurement": "kon", "setting": "recombinant Ara h 2.02 [1]", "value": 165000, "unit": "M⁻¹ s⁻¹"}, {"measurement": "binding result", "setting": "recombinant Ara h 6", "value": "no binding (tested: 500 nM (highest analyte concentration))"}]}, {"binder": "B2", "values": [{"measurement": "Kd", "setting": "recombinant Ara h 2.01", "value": 65, "unit": "pM"}, {"measurement": "koff", "setting": "recombinant Ara h 2.01", "value": "5.63e-05", "unit": "s⁻¹"}, {"measurement": "kon", "setting": "recombinant Ara h 2.01", "value": 872000, "unit": "M⁻¹ s⁻¹"}, {"measurement": "Kd", "setting": "recombinant Ara h 2.02 [2]", "value": 36, "unit": "pM"}, {"measurement": "koff", "setting": "recombinant Ara h 2.02 [2]", "value": "3.82e-05", "unit": "s⁻¹"}, {"measurement": "kon", "setting": "recombinant Ara h 2.02 [2]", "value": "1.35e+06", "unit": "M⁻¹ s⁻¹"}, {"measurement": "Kd", "setting": "[3]", "value": 17, "unit": "pM"}, {"measurement": "koff", "setting": "[3]", "value": "3.69e-05", "unit": "s⁻¹"}, {"measurement": "kon", "setting": "[3]", "value": "2.22e+06", "unit": "M⁻¹ s⁻¹"}, {"measurement": "Kd", "setting": "recombinant Ara h 6", "value": 36, "unit": "pM"}, {"measurement": "koff", "setting": "recombinant Ara h 6", "value": "8.57e-05", "unit": "s⁻¹"}, {"measurement": "kon", "setting": "recombinant Ara h 6", "value": "2.39e+06", "unit": "M⁻¹ s⁻¹"}]}]}
